In PMC4022879, “Interactions Outside the Proteinase-binding Loop Contribute Significantly to the Inhibition of Activated Coagulation Factor XII by Its Canonical Inhibitor from Corn*^([image sbox.jpg])” (The Journal of Biological Chemistry, 2014):

Target: activated coagulation factor XI (FXIa) (Activated two-chain form, cleaved after residue 387 (precursor numbering). Heavy and light chains are disulfide-linked, and the whole is a disulfide-linked homodimer; N-glycosylated. The commercial fu)
Assay: chromogenic enzyme inhibition assay; 200 pM FXIa, 500 μM S2366, 37 °C, 110 mM Tris-HCl pH 8.0, 250 mM NaCl, 1% BSA; residual activity in triplicate at at least six inhibitor concentrations; Ki from a linear fit of 1/v against inhibitor concentration
Settings: both partners purified

Sequence of activated coagulation factor XI (FXIa) (Activated two-chain form, cleaved after residue 387 (precursor numbering). Heavy and light chains are disulfide-linked, and the whole is a disulfide-linked homodimer; N-glycosylated. The commercial fu) (chain, as listed by the source, chain 1 of 2): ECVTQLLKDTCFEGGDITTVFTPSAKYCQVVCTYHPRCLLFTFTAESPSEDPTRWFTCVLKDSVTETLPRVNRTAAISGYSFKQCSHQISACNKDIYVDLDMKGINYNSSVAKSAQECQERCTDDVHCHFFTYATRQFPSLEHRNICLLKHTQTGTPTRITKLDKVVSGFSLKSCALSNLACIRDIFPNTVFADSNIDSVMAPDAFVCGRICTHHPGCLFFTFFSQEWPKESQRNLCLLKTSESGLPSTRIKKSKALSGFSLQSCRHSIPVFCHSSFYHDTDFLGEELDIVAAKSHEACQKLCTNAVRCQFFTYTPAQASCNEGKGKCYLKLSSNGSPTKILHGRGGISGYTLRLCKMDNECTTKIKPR
Sequence of activated coagulation factor XI (FXIa) (Activated two-chain form, cleaved after residue 387 (precursor numbering). Heavy and light chains are disulfide-linked, and the whole is a disulfide-linked homodimer; N-glycosylated. The commercial fu) (chain, as listed by the source, chain 2 of 2): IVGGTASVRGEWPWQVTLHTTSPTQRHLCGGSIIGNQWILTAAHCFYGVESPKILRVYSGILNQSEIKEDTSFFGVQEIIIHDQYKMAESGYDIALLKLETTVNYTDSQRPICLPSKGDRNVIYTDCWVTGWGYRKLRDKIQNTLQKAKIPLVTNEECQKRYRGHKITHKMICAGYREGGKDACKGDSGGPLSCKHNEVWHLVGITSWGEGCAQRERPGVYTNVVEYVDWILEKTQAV

B1: corn Hageman factor inhibitor (CHFI), control protein from Zea mays seeds (natural protein, UniProt P01088 29-138, looked up)
chain: SAGTSCVPGWAIPHNPLPSCRWYVTSRTCGIGPRLPWPELKRRCCRELADIPAYCRCTALSILMDGAIPPGPDAQLEGRLEDLPGCPREVQRGFAATLVTEAECNLATIS
notes: the mature protein has 127 amino acids, scissile bond Arg34-Leu35; numbers count on: the mature protein (PDB 1BEA); also called CHFI-ER; wild-type CHFI; source: bought: Enzyme Research Laboratories (from Z. mays seeds)
- Ki: 5.4 ± 0.2 µM

B2: CHFI-1245, full-size CHFI with Cys29 substituted by Asp (natural protein, Zea mays, UniProt P01088 29-138, looked up)
chain: SAGTSCVPGWAIPHNPLPSCRWYVTSRTDGIGPRLPWPELKRRCCRELADIPAYCRCTALSILMDGAIPPGPDAQLEGRLEDLPGCPREVQRGFAATLVTEAECNLATIS
notes: numbers count on: the mature protein (PDB 1BEA); also called C29D mutant; source: E. coli Rosetta-Gami 2 DE3, purified (Ni2+-agarose); not shown: His6, N-terminal, kept; C-terminal tag of 1.5 kDa (His tag inferred from pET-28a), C-terminal, kept
- Ki: 490 ± 110 µM
